Data as given in US20220089730A1 (published 2022).
Changes are numbered by the printed parent chain. Values belong to the binder of their own block, whether it stands above or below them.

Key:
[1] = target: CD8 (cell surface CD8 on HPB-ALL cells) (UniProt P01732 22-235; A6NJW9 19-210); experiment: FACS
[2] = target: T1, PSMA (Prostate-Specific Membrane Antigen), glutamate carboxypeptidase 2 (UniProt Q04609 1-750); experiment: FACS
[3] = target: T1, PSMA (Prostate-Specific Membrane …); experiment: FACS; C4-2 XCL cells
[4] = target: T1, PSMA (Prostate-Specific Membrane …); experiment: FACS; LNCaP-AR cells
[5] = target: T1, PSMA (Prostate-Specific Membrane …); experiment: FACS; table prints γ2 EH2, curve legend prints γ1 EH1

Sequence of CD8 (cell surface CD8 on HPB-ALL cells) (P01732 22-235, chain 1 of 2): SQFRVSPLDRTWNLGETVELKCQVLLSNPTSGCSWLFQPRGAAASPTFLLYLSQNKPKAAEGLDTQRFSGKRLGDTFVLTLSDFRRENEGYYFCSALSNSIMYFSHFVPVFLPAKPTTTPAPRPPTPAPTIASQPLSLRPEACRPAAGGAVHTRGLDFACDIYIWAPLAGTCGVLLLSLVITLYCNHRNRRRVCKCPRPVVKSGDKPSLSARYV
Sequence of CD8 (cell surface CD8 on HPB-ALL cells) (A6NJW9 19-210 C51R/T71A, chain 2 of 2): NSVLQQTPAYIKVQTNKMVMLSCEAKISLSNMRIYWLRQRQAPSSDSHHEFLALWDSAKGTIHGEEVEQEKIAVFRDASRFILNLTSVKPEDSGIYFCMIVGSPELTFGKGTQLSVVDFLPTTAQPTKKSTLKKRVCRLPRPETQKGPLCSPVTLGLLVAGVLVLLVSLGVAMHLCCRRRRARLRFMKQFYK

EC50 [1]: 0.163 nM
B2: IAB22M γ3/γ1 EH8 (other)
chain: DVQITQSPSSLSASVGDRVTITCRTSRSISQYLAWYQQKPGKVPKLLIYSGSTLQSGVPSRFSGSGSGTDFTLTISSLQPEDVATYYCQQHNENPLTFGGGTKVEIKGSTSGGGSGGGSGGGGSSEVQLVESGGGLVQPGGSLRLSCAASGFNIKDTYIHFVRQAPGKGLEWIGRIDPANDNTLYASKFQGKATISADTSKNTAYLQMNSLRAEDTAVYYCGRGYGYYVFDHWGQGTLVTVSSELKTPLGDTTHTCPPCPPCPPCGGGSSGGGSGGQPREPQVYTLPPSRDELTKNQVSLTCLVKGFYPSDIAVEWESNGQPENNYKTTPPVLDSDGSFFLYSKLTVDKSRWQQGNVFSCSVMHEALHNHYTQKSLSLSPGK

EC50 [1]: 0.37 nM
B7: IAB22M γ1 EH3 (other)
chain: DVQITQSPSSLSASVGDRVTITCRTSRSISQYLAWYQQKPGKVPKLLIYSGSTLQSGVPSRFSGSGSGTDFTLTISSLQPEDVATYYCQQHNENPLTFGGGTKVEIKGSTSGGGSGGGSGGGGSSEVQLVESGGGLVQPGGSLRLSCAASGFNIKDTYIHFVRQAPGKGLEWIGRIDPANDNTLYASKFQGKATISADTSKNTAYLQMNSLRAEDTAVYYCGRGYGYYVFDHWGQGTLVTVSSEPKSSDKTHTCPPCPPCGGGSSGGGSGGQPREPQVYTLPPSRDELTKNQVSLTCLVKGFYPSDIAVEWESNGQPENNYKTTPPVLDSDGSFFLYSKLTVDKSRWQQGNVFSCSVMHEALHNHYTQKSLSLSPGK

EC50 [1]: 0.188 nM
B10: IAB22M γ3/γ1 EH6 (other)
chain: DVQITQSPSSLSASVGDRVTITCRTSRSISQYLAWYQQKPGKVPKLLIYSGSTLQSGVPSRFSGSGSGTDFTLTISSLQPEDVATYYCQQHNENPLTFGGGTKVEIKGSTSGGGSGGGSGGGGSSEVQLVESGGGLVQPGGSLRLSCAASGFNIKDTYIHFVRQAPGKGLEWIGRIDPANDNTLYASKFQGKATISADTSKNTAYLQMNSLRAEDTAVYYCGRGYGYYVFDHWGQGTLVTVSSELKTPLGDTTHTCVECPPCGGGSSGGGSGGQPREPQVYTLPPSRDELTKNQVSLTCLVKGFYPSDIAVEWESNGQPENNYKTTPPVLDSDGSFFLYSKLTVDKSRWQQGNVFSCSVMHEALHNHYTQKSLSLSPGK

EC50 [2]: 0.186 nM
B11: IAB2M γ3/γ1 EH7 (other)
chain: DIVMTQSPSSLSASVGDRVTITCKASQDVGTAVDWYQQKPGKAPKLLIYWASTRHTGVPDRFTGSGSGTDFTLTISSLQPEDFADYFCQQYNSYPLTFGGGTKLEIKGSTSGGGSGGGSGGGGSSEVQLVQSGAEVKKPGASVKISCKTSGYTFTEYTIHWVKQASGKGLEWIGNINPNNGGTTYNQKFEDRATLTVDKSTSTAYMELSSLRSEDTAVYYCAAGWNFDYWGQGTTVTVSSELKTPLGDTTHTCPPCPPCGGGSSGGGSGGQPREPQVYTLPPSRDELTKNQVSLTCLVKGFYPSDIAVEWESNGQPENNYKTTPPVLDSDGSFFLYSKLTVDKSRWQQGNVFSCSVMHEALHNHYTQKSLSLSPGK

EC50 [3]: 0.4 nM
EC50 [4]: 0.05 nM
B14: IAB2M γ1 EH1 (other)
chain: DIVMTQSPSSLSASVGDRVTITCKASQDVGTAVDWYQQKPGKAPKLLIYWASTRHTGVPDRFTGSGSGTDFTLTISSLQPEDFADYFCQQYNSYPLTFGGGTKLEIKGSTSGGGSGGGSGGGGSSEVQLVQSGAEVKKPGASVKISCKTSGYTFTEYTIHWVKQASGKGLEWIGNINPNNGGTTYNQKFEDRATLTVDKSTSTAYMELSSLRSEDTAVYYCAAGWNFDYWGQGTTVTVSSEPKSCDKTHTCPPCGGGSSGGGSGGQPREPQVYTLPPSRDELTKNQVSLTCLVKGFYPSDIAVEWESNGQPENNYKTTPPVLDSDGSFFLYSKLTVDKSRWQQGNVFSCSVMHEALHNHYTQKSLSLSPGK

Second part, the binder before the results:

B1: IAB22M γ2 EH2 (other)
chain: DVQITQSPSSLSASVGDRVTITCRTSRSISQYLAWYQQKPGKVPKLLIYSGSTLQSGVPSRFSGSGSGTDFTLTISSLQPEDVATYYCQQHNENPLTFGGGTKVEIKGSTSGGGSGGGSGGGGSSEVQLVESGGGLVQPGGSLRLSCAASGFNIKDTYIHFVRQAPGKGLEWIGRIDPANDNTLYASKFQGKATISADTSKNTAYLQMNSLRAEDTAVYYCGRGYGYYVFDHWGQGTLVTVSSERKSCVECPPCPGGGSSGGGSGGQPREPQVYTLPPSREEMTKNQVSLTCLVKGFYPSDIAVEWESNGQPENNYKTTPPMLDSDGSFFLYSKLTVDKSRWQQGNVFSCSVMHEALHNHYTQKSLSLSPGK
EC50 [1]: 0.156 nM

B3: IAB2M γ1 EH3 (other)
chain: DIVMTQSPSSLSASVGDRVTITCKASQDVGTAVDWYQQKPGKAPKLLIYWASTRHTGVPDRFTGSGSGTDFTLTISSLQPEDFADYFCQQYNSYPLTFGGGTKLEIKGSTSGGGSGGGSGGGGSSEVQLVQSGAEVKKPGASVKISCKTSGYTFTEYTIHWVKQASGKGLEWIGNINPNNGGTTYNQKFEDRATLTVDKSTSTAYMELSSLRSEDTAVYYCAAGWNFDYWGQGTTVTVSSEPKSSDKTHTCPPCPPCGGGSSGGGSGGQPREPQVYTLPPSRDELTKNQVSLTCLVKGFYPSDIAVEWESNGQPENNYKTTPPVLDSDGSFFLYSKLTVDKSRWQQGNVFSCSVMHEALHNHYTQKSLSLSPGK
EC50 [2]: 0.162 nM
EC50 [3]: 0.38 nM

B4: IAB2M γ3/γ1 EH8 (other)
chain: DIVMTQSPSSLSASVGDRVTITCKASQDVGTAVDWYQQKPGKAPKLLIYWASTRHTGVPDRFTGSGSGTDFTLTISSLQPEDFADYFCQQYNSYPLTFGGGTKLEIKGSTSGGGSGGGSGGGGSSEVQLVQSGAEVKKPGASVKISCKTSGYTFTEYTIHWVKQASGKGLEWIGNINPNNGGTTYNQKFEDRATLTVDKSTSTAYMELSSLRSEDTAVYYCAAGWNFDYWGQGTTVTVSSELKTPLGDTTHTCPPCPPCPPCGGGSSGGGSGGQPREPQVYTLPPSRDELTKNQVSLTCLVKGFYPSDIAVEWESNGQPENNYKTTPPVLDSDGSFFLYSKLTVDKSRWQQGNVFSCSVMHEALHNHYTQKSLSLSPGK
EC50 [2]: 0.227 nM

B5: IAB2M γ2 EH1 (other)
chain: DIVMTQSPSSLSASVGDRVTITCKASQDVGTAVDWYQQKPGKAPKLLIYWASTRHTGVPDRFTGSGSGTDFTLTISSLQPEDFADYFCQQYNSYPLTFGGGTKLEIKGSTSGGGSGGGSGGGGSSEVQLVQSGAEVKKPGASVKISCKTSGYTFTEYTIHWVKQASGKGLEWIGNINPNNGGTTYNQKFEDRATLTVDKSTSTAYMELSSLRSEDTAVYYCAAGWNFDYWGQGTTVTVSSERKCCVECPPCPGGGSSGGGSGGQPREPQVYTLPPSREEMTKNQVSLTCLVKGFYPSDIAVEWESNGQPENNYKTTPPMLDSDGSFFLYSKLTVDKSRWQQGNVFSCSVMHEALHNHYTQKSLSLSPGK
EC50 [3]: 0.27 nM

B6: IAB2M γ2 EH2 (other)
chain: B5 chain with C244S
EC50 [4]: 0.05 nM
EC50 [5]: 0.176 nM

B8: IAB22M γ1 EH5 (other)
chain: DVQITQSPSSLSASVGDRVTITCRTSRSISQYLAWYQQKPGKVPKLLIYSGSTLQSGVPSRFSGSGSGTDFTLTISSLQPEDVATYYCQQHNENPLTFGGGTKVEIKGSTSGGGSGGGSGGGGSSEVQLVESGGGLVQPGGSLRLSCAASGFNIKDTYIHFVRQAPGKGLEWIGRIDPANDNTLYASKFQGKATISADTSKNTAYLQMNSLRAEDTAVYYCGRGYGYYVFDHWGQGTLVTVSSEPKSSDKTHTCPPCPPCPPCGGGSSGGGSGGQPREPQVYTLPPSRDELTKNQVSLTCLVKGFYPSDIAVEWESNGQPENNYKTTPPVLDSDGSFFLYSKLTVDKSRWQQGNVFSCSVMHEALHNHYTQKSLSLSPGK
EC50 [1]: 0.146 nM

B9: IAB22M γ3/γ1 EH7 (other)
chain: B10 chain with V257P, E258P
EC50 [1]: 0.17 nM

B12: IAB2M γ3/γ1 EH6 (other)
chain: B11 chain with P254V, P255E
EC50 [2]: 0.188 nM

B13: IAB2M γ1 EH2 (other)
chain: B14 chain with C245S
EC50 [3]: 0.26 nM
EC50 [4]: 0.06 nM

B15: IAB2M γ1 EH5 (other)
chain: DIVMTQSPSSLSASVGDRVTITCKASQDVGTAVDWYQQKPGKAPKLLIYWASTRHTGVPDRFTGSGSGTDFTLTISSLQPEDFADYFCQQYNSYPLTFGGGTKLEIKGSTSGGGSGGGSGGGGSSEVQLVQSGAEVKKPGASVKISCKTSGYTFTEYTIHWVKQASGKGLEWIGNINPNNGGTTYNQKFEDRATLTVDKSTSTAYMELSSLRSEDTAVYYCAAGWNFDYWGQGTTVTVSSEPKSSDKTHTCPPCPPCPPCGGGSSGGGSGGQPREPQVYTLPPSRDELTKNQVSLTCLVKGFYPSDIAVEWESNGQPENNYKTTPPVLDSDGSFFLYSKLTVDKSRWQQGNVFSCSVMHEALHNHYTQKSLSLSPGK
EC50 [2]: 0.183 nM
